Experimental data published in the supplement of paper PMC9112550, “Optimization of the antimicrobial peptide Bac7 by deep mutational scanning” (BMC Biology, 2022).

System: Escherichia coli TOP10
Experiment: shrunken log2 fold change of peptide-encoding DNA abundance (4.5 h post-induction vs induction); higher = less antimicrobial activity (less host growth inhibition)
Conditions: time post-induction: 4.5 h; library: site-saturation at positions 5, 18, 19, 20
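Further: peptides expressed intracellularly from a pBAD plasmid library in pooled LB shake-flask culture, induced with 0.3% L-arabinose, DNA abundance read by NGS, three biological replicates, DESeq2 with apeglm shrinkage.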

Sequence | shrunken log2 fold change
RRIRNRPPRLPRPRPRPHDCPRP | -0.124
RRIRNRPPRLPRPRPRPHDLPRP | 0.0667
RRIRNRPPRLPRPRPRPHDTPRP | -0.267
RRIRNRPPRLPRPRPRPHHSPRP | 0.0657
RRIRNRPPRLPRPRPRPHHYPRP | -0.619
RRIRNRPPRLPRPRPRPHIPPRP | -0.793
RRIRNRPPRLPRPRPRPHITPRP | -0.399
RRIRNRPPRLPRPRPRPHKCPRP | -0.0755
RRIRNRPPRLPRPRPRPHKDPRP | -0.737
RRIRNRPPRLPRPRPRPHLLPRP | -1.08
RRIRNRPPRLPRPRPRPHMGPRP | -0.133
RRIRNRPPRLPRPRPRPHMNPRP | -0.572
RRIRNRPPRLPRPRPRPHNPPRP | -0.143
RRIRNRPPRLPRPRPRPHNYPRP | -0.968
RRIRNRPPRLPRPRPRPHPLPRP | -0.122
RRIRNRPPRLPRPRPRPHRHPRP | -0.222
RRIRNRPPRLPRPRPRPHSCPRP | -0.00198
RRIRNRPPRLPRPRPRPHSNPRP | -0.341
RRIRNRPPRLPRPRPRPHTMPRP | -0.298
RRIRNRPPRLPRPRPRPHWLPRP | -0.101
RRIRNRPPRLPRPRPRPHWPPRP | 0.0957
RRIRNRPPRLPRPRPRPHYLPRP | -0.218
RRIRNRPPRLPRPRPRPHYMPRP | -0.389
RRIRNRPPRLPRPRPRPHYQPRP | -0.568
RRIRNRPPRLPRPRPRPICEPRP | 0.0602

Sequence | shrunken log2 fold change
RRIRNRPPRLPRPRPRPIELPRP | -0.232
RRIRNRPPRLPRPRPRPIFLPRP | -0.182
RRIRNRPPRLPRPRPRPIGCPRP | 0.0526
RRIRNRPPRLPRPRPRPIGDPRP | -0.0116
RRIRNRPPRLPRPRPRPIGYPRP | 0.103
RRIRNRPPRLPRPRPRPIHMPRP | 0.0468
RRIRNRPPRLPRPRPRPIHQPRP | -0.189
RRIRNRPPRLPRPRPRPIIDPRP | -0.361
RRIRNRPPRLPRPRPRPIKSPRP | -0.245
RRIRNRPPRLPRPRPRPIPNPRP | -0.428
RRIRNRPPRLPRPRPRPIPRPRP | 0.0496
RRIRNRPPRLPRPRPRPIQEPRP | -0.0116
RRIRNRPPRLPRPRPRPIQFPRP | -0.178
RRIRNRPPRLPRPRPRPIQRPRP | 0.00743
RRIRNRPPRLPRPRPRPIRFPRP | -0.0225
RRIRNRPPRLPRPRPRPIRLPRP | -0.0969
RRIRNRPPRLPRPRPRPIRTPRP | -0.176
RRIRNRPPRLPRPRPRPISKPRP | -0.472
RRIRNRPPRLPRPRPRPISYPRP | -0.029
RRIRNRPPRLPRPRPRPITIPRP | -0.366
RRIRNRPPRLPRPRPRPITQPRP | -0.187
RRIRNRPPRLPRPRPRPITRPRP | -0.0765
RRIRNRPPRLPRPRPRPIVIPRP | -0.29
RRIRNRPPRLPRPRPRPIWDPRP | -0.14
RRIRNRPPRLPRPRPRPIWHPRP | -0.356

Sequence | shrunken log2 fold change
RRIRNRPPRLPRPRPRPIWMPRP | 0.178
RRIRNRPPRLPRPRPRPIYRPRP | -0.356
RRIRNRPPRLPRPRPRPKAEPRP | 0.153
RRIRNRPPRLPRPRPRPKDVPRP | -0.0116
RRIRNRPPRLPRPRPRPKEIPRP | 0.0136
RRIRNRPPRLPRPRPRPKEVPRP | 0.0999
RRIRNRPPRLPRPRPRPKEYPRP | 0.199
RRIRNRPPRLPRPRPRPKFVPRP | -0.0126
RRIRNRPPRLPRPRPRPKGFPRP | -0.0324
RRIRNRPPRLPRPRPRPKGNPRP | -0.00941
RRIRNRPPRLPRPRPRPKITPRP | -0.367
RRIRNRPPRLPRPRPRPKKCPRP | -0.209
RRIRNRPPRLPRPRPRPKKIPRP | -0.187
RRIRNRPPRLPRPRPRPKLDPRP | 0.00863
RRIRNRPPRLPRPRPRPKLKPRP | 0.2
RRIRNRPPRLPRPRPRPKNIPRP | -0.483
RRIRNRPPRLPRPRPRPKQFPRP | -0.214
RRIRNRPPRLPRPRPRPKSCPRP | -0.0533
RRIRNRPPRLPRPRPRPKTIPRP | -0.14
RRIRNRPPRLPRPRPRPKTKPRP | -0.0202
RRIRNRPPRLPRPRPRPKWNPRP | -0.319
RRIRNRPPRLPRPRPRPKYGPRP | -0.174
RRIRNRPPRLPRPRPRPKYPPRP | -0.137
RRIRNRPPRLPRPRPRPLAAPRP | 0.568
RRIRNRPPRLPRPRPRPLCCPRP | -0.371

Sequence | shrunken log2 fold change
RRIRNRPPRLPRPRPRPLCSPRP | -0.0294
RRIRNRPPRLPRPRPRPLDYPRP | -0.309
RRIRNRPPRLPRPRPRPLECPRP | -0.311
RRIRNRPPRLPRPRPRPLEFPRP | -0.109
RRIRNRPPRLPRPRPRPLELPRP | -0.0825
RRIRNRPPRLPRPRPRPLEQPRP | -0.166
RRIRNRPPRLPRPRPRPLFYPRP | -0.586
RRIRNRPPRLPRPRPRPLGAPRP | 0.413
RRIRNRPPRLPRPRPRPLISPRP | 3.16
RRIRNRPPRLPRPRPRPLMNPRP | -0.853
RRIRNRPPRLPRPRPRPLMYPRP | -0.158
RRIRNRPPRLPRPRPRPLNEPRP | -0.233
RRIRNRPPRLPRPRPRPLNGPRP | -0.0206
RRIRNRPPRLPRPRPRPLPDPRP | -0.0552
RRIRNRPPRLPRPRPRPLQNPRP | 0.176
RRIRNRPPRLPRPRPRPLRHPRP | -0.0731
RRIRNRPPRLPRPRPRPLRYPRP | 0.0165
RRIRNRPPRLPRPRPRPLTCPRP | -0.149
RRIRNRPPRLPRPRPRPLVAPRP | -0.124
RRIRNRPPRLPRPRPRPLVEPRP | -0.187
RRIRNRPPRLPRPRPRPLVKPRP | -0.741
RRIRNRPPRLPRPRPRPLYGPRP | -0.171
RRIRNRPPRLPRPRPRPMASPRP | -0.0269
RRIRNRPPRLPRPRPRPMCQPRP | -0.0153
RRIRNRPPRLPRPRPRPMFRPRP | -0.0515

Sequence | shrunken log2 fold change
RRIRNRPPRLPRPRPRPMGDPRP | -0.00663
RRIRNRPPRLPRPRPRPMHCPRP | -0.0148
RRIRNRPPRLPRPRPRPMHNPRP | -0.286
RRIRNRPPRLPRPRPRPMHPPRP | -0.212
RRIRNRPPRLPRPRPRPMHYPRP | -0.13
RRIRNRPPRLPRPRPRPMKEPRP | 0.0626
RRIRNRPPRLPRPRPRPMKYPRP | -0.164
RRIRNRPPRLPRPRPRPMLCPRP | 0.0164
RRIRNRPPRLPRPRPRPMLGPRP | 0.0259
RRIRNRPPRLPRPRPRPMLMPRP | -0.0217
RRIRNRPPRLPRPRPRPMLNPRP | -0.21
RRIRNRPPRLPRPRPRPMMQPRP | -0.208
RRIRNRPPRLPRPRPRPMQIPRP | 0.0592
RRIRNRPPRLPRPRPRPMRWPRP | 0.892
RRIRNRPPRLPRPRPRPMSPPRP | -0.000685
RRIRNRPPRLPRPRPRPMTAPRP | -0.167
RRIRNRPPRLPRPRPRPMTEPRP | 0.00748
RRIRNRPPRLPRPRPRPMTSPRP | -0.0113
RRIRNRPPRLPRPRPRPMYTPRP | -0.48
RRIRNRPPRLPRPRPRPNALPRP | -0.134
RRIRNRPPRLPRPRPRPNAYPRP | -0.0738
RRIRNRPPRLPRPRPRPNCAPRP | -0.123
RRIRNRPPRLPRPRPRPNDQPRP | -0.309
RRIRNRPPRLPRPRPRPNDYPRP | -0.365
RRIRNRPPRLPRPRPRPNEHPRP | -0.071

Sequence | shrunken log2 fold change
RRIRNRPPRLPRPRPRPNGTPRP | -0.167
RRIRNRPPRLPRPRPRPNHKPRP | -0.688
RRIRNRPPRLPRPRPRPNHNPRP | -0.858
RRIRNRPPRLPRPRPRPNHQPRP | -0.241
RRIRNRPPRLPRPRPRPNIDPRP | -0.936
RRIRNRPPRLPRPRPRPNIFPRP | -0.29
RRIRNRPPRLPRPRPRPNKNPRP | -0.406
RRIRNRPPRLPRPRPRPNLEPRP | 0.0441
RRIRNRPPRLPRPRPRPNLVPRP | -0.0403
RRIRNRPPRLPRPRPRPNMSPRP | -0.0455
RRIRNRPPRLPRPRPRPNPFPRP | -0.0489
RRIRNRPPRLPRPRPRPNQRPRP | 0.0166
RRIRNRPPRLPRPRPRPNRKPRP | 2.2
RRIRNRPPRLPRPRPRPNSVPRP | -0.0503
RRIRNRPPRLPRPRPRPNVAPRP | 3.26
RRIRNRPPRLPRPRPRPNWFPRP | -0.145
RRIRNRPPRLPRPRPRPNYNPRP | -1.07
RRIRNRPPRLPRPRPRPPAWPRP | 0.369
RRIRNRPPRLPRPRPRPPCCPRP | 0.123
RRIRNRPPRLPRPRPRPPCTPRP | -0.234
RRIRNRPPRLPRPRPRPPDIPRP | -0.341
RRIRNRPPRLPRPRPRPPELPRP | 0.142
RRIRNRPPRLPRPRPRPPFIPRP | -0.551
RRIRNRPPRLPRPRPRPPGKPRP | 0.484
RRIRNRPPRLPRPRPRPPGLPRP | 0.46
